From paper PMC9663165, “Human immunomodulatory ligand B7-1 mediates synaptic remodeling via the p75 neurotrophin receptor” (The Journal of Clinical Investigation, 2022)

B1: p75^NTR-mIgG2A (Fc fusion, UniProt P08138 29-250, looked up)
chain: KEACPTGLYTHSGECCKACNLGEGVAQPCGANQTVCEPCLDSVTFSDVVSATEPCKPCTECVGLQSMSAPCVEADDAVCRCAYGYYQDETTGRCEACRVCEAGSGLVFSCQDKQNTVCEECPDGTYSDEANHVDPCLPCTVCEDTERQLRECTRWADAECEEIPGRWITRSTPPEGSDSTAPSTQEPEAPPEQDLIASTVAGVVTTVMGSSQPVVTRGTTDN
notes: p75NTR (NGFR) full-length ectodomain; also called p75^NTR-Fc; source: Expi293 suspension cells, transiently transfected, purified; not shown: Fc (mouse IgG2a), C-terminal, kept
B2: hB7-1-mIgG2A (Fc fusion, human, UniProt P33681 35-233, looked up)
chain: VIHVTKEVKEVATLSCGHNVSVEELAQTRIYWQKEKKMVLTMMSGDMNIWPEYKNRTIFDITNNLSIVILALRPSDEGTYECVVLKYEKDAFKREHLAEVTLSVKADFPTPSISDFEIPTSNIRRIICSTSGGFPEPHLSWLENGEELNAINTTVSQDPETELYAVSSKLDFNMTTNHSFMCLIKYGHLRVNQTFNWNT
notes: B7-1 (CD80), human, ectodomain residues 35-233; also called B7-1-Fc; WT B7-1-Fc; source: Expi293, transiently expressed, purified (Ni2+ His60 resin, S200 gel filtration); not shown: Fc (mouse IgG2a), C-terminal, kept
B3: hB7-1N82E-mIgG2A (Fc fusion, human, UniProt P33681 35-233, looked up)
chain: VIHVTKEVKEVATLSCGHNVSVEELAQTRIYWQKEKKMVLTMMSGDMEIWPEYKNRTIFDITNNLSIVILALRPSDEGTYECVVLKYEKDAFKREHLAEVTLSVKADFPTPSISDFEIPTSNIRRIICSTSGGFPEPHLSWLENGEELNAINTTVSQDPETELYAVSSKLDFNMTTNHSFMCLIKYGHLRVNQTFNWNT
notes: B7-1 (CD80), human, ectodomain residues 35-233 with N82E; also called B7-1N82E-Fc; source: Expi293, transiently expressed, purified (Ni2+ His60 resin, S200 gel filtration); not shown: Fc (mouse IgG2a), C-terminal, kept

Experiments:
B7-1–hIgG1 biotin = target: T1, B7-1–hIgG1 biotin (human, UniProt P33681 35-233, biotin on the AVI tag); test: flow cytometry on protein-coated beads; p75NTR-mIgG2a or CTLA-4–mIgG2a titrated (0 to 100 nM, 30 min) onto streptavidin beads coated with B7-1–hIgG1 biotin; detected with anti-mIgG2a; PBS 0.2% BSA pH 7.4; Hill fit; dimeric fusion proteins; settings: both partners purified
T1 construct: human B7-1 (CD80) ectodomain, residues 35-233; also called recombinant biotinylated B7-1–Fc protein; B7-1–Fc biotin; source: Expi293 cells stably expressing BirA, transiently transfected, purified; not shown: Fc (human IgG1), C-terminal, kept; AVI tag, C-terminal, kept
T1 sequence (looked up): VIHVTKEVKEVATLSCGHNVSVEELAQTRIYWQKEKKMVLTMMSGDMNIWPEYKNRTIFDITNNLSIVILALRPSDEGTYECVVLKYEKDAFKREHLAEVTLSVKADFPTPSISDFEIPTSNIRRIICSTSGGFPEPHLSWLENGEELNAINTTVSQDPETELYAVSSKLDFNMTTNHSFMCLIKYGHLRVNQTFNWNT

[1] = target: T2, CTLA-4 on cells (Figure S6) ( (human or mouse cDNA cloned), UniProt P16410 36-223); test: flow cytometry on cells; recombinant B7-1-Fc or B7-1N82E-Fc titrated (up to 1.2 uM) onto cells expressing CTLA-4, CD28 or p75NTR; detected with an anti-mouse 647 labelled antibody; EC50 calculated; settings: one partner purified
T2 construct: CTLA-4; Probably a C-terminal GFP fusion in HEK293F cells as in the other experiments; also called CTLA-4 Expressing Cells; CTLA-4 cells
T2 sequence (P16410 36-223): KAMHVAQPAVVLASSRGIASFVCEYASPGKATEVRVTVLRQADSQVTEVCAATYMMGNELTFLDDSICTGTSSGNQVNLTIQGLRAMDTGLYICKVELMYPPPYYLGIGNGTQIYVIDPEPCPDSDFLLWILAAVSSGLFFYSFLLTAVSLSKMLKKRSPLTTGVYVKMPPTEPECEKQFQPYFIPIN

[2] = target: T3, human p75 neurotrophin receptor-GFP (human, UniProt P08138 29-427); test: as above; settings: one partner purified
T3 construct: also called p75NTR; NGFR; source: HEK293F, transiently transfected, on cells; not shown: GFP, C-terminal, kept
T3 sequence (looked up): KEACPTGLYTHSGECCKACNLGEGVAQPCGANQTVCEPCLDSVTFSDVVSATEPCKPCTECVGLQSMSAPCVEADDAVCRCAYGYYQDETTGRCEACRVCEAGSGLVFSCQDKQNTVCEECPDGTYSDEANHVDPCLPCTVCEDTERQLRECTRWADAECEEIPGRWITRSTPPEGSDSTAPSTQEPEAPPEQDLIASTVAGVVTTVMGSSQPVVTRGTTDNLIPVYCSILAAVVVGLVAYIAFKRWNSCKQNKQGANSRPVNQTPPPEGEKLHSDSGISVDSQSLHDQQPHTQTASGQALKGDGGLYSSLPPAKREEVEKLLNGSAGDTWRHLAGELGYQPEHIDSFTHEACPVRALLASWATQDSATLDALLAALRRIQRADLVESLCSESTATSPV

[3] = target: T4, CD28 on cells (Figure S6) ( (human or mouse cDNA cloned), UniProt P10747 19-220); test: as above; settings: one partner purified
T4 construct: CD28; Probably a C-terminal GFP fusion in HEK293F cells as in the other experiments; also called CD28 Expressing Cells; CD28 cells

Binder	EC50 (B7-1–hIgG1 biotin)	EC50 [1]	EC50 [2]	EC50 [3]
B1	16 nM	–	–	–
B2	–	0.69 nM	285 nM	9.7 nM
B3	–	9.2 nM	–	10.3 nM
